This note sets out measurements from patent publication US20260092084A1, “PEPTIDE AND ASSEMBLY OR COMPOSITION CONTAINING SAID PEPTIDE” (priority 2022, published 2026).

The conditions of data set [1]: mouse, in vivo.
Method: Three kinds of fluorescein (FAM)-labeled peptides shown in Table 7 were purchased from Eurofins Genomics K.K. 1 mg of each of the peptides was separately dissolved in 4 mL of PBS to prepare an administration solution (0.25 mg/mL).
Eighteen Crl:CD1 (ICR) mice (male) (Jackson Laboratory Japan, Inc.) were subjected to 7 or more days of adaptation after their arrival and receipt, then divided by three per group into the six groups as in Table 8, and used in the following experiments. The administration solution (1 mg/4 mL/kg) was administered to the tail vein of a non-fasting mouse through use of a syringe equipped with an injection needle. A dose for each individual was calculated from a body weight measured on the day of the administration.
After the completion of the administration, about 0.1 mL of blood was collected from a jugular vein without anesthesia at the predetermined time points of collection shown in Table 8 through use of a heparin-treated syringe equipped with an injection needle. At the final time point of collection, whole blood was collected from a posterior aorta under isoflurane anesthesia. The collected blood was promptly transferred to a polypropylene tube and cooled on ice. The collected whole blood was centrifuged (about 10,000×g, 3 minutes, 4° C.), and the plasma sample was promptly dispensed and light-shielded in a sample storage container. The plasma samples were cryopreserved until measurement (control temperature: about −80° C.).
A freeze-thawed plasma sample (10 μL) was diluted 10-fold with PBS (90 μL), and measured for its fluorescence intensity with a plate reader (SPARK™ multi-detection mode microplate reader, Tecan Group Ltd.) (excitation wavelength: 495 nm; emission wavelength: 520 nm). […] The peptide concentrations in plasma thus obtained were logarithmically plotted against post-administration time, four time points including the final blood collection point were exponentially approximated (Microsoft Excel, Microsoft Corporation), and an elimination half-life was calculated from a slope of the straight line. […]
Data set [2] is described as follows: Binding affinity to first target (HA): adsorption isotherm on hydroxyapatite beads. Conditions: hydroxyapatite magnetic beads; 10 mM HEPES (pH 7.4)/1% DMSO; 4° C., 4 hours; tryptophan fluorescence; read-out: Dissociation constant (KD). As for the experimental part:
The peptides of Examples 1-2 and 1-5 and a HA-binding peptide A (DSpSEEKW: SEQ ID NO: 17) forming the HA binding site of each of the peptides were each evaluated for peptide binding affinity to hydroxyapatite beads (1 μm BcMag™ Hydroxyapatite Magnetic Particles (Bioclone Inc., catalog No. FO-101)). Specifically, the beads were weighed and suspended in a 100 mM sodium phosphate buffer (pH 7.4)/20% ethanol so as to have 30 mg/mL. 267 μL of the suspension of the beads ultrasonicated to be dispersed homogenously was dispensed in a 1.5 mL tube. The beads were fixed with a magnetic stand (Takara Bio Inc., Magnetic Stand (6 tubes), product code: 5328), followed by removal of a supernatant, and then 100 μL of a peptide solution was added. The peptide solution was prepared by diluting the 100 mM stock solution (in DMSO) to 40 μM with 10 mM HEPES (pH 7.4)/1% DMSO and further serially diluting the solution from 4-fold to 5-fold. After stirring at 4° C. for 4 hours, the tube was stood in the magnetic stand for fixing the beads, and a supernatant was recovered. A peptide concentration in the supernatant was measured with a plate reader (VARIO-SCAN, Thermo Fischer Scientific Inc.) based on a fluorescence intensity derived from tryptophan in a sequence (excitation wavelength: 280 nm; emission wavelength: 355 nm) through use of 50 μL of the supernatant. The amount of the peptide bound to the beads was determined by subtracting the peptide concentration in the supernatant from a total peptide concentration, and the adsorption isotherm thus obtained was subjected to curve fitting to a theoretical formula (Microsoft Excel, Microsoft Corporation), thereby determining a dissociation constant KD of the peptide to the hydroxyapatite beads.

Data set [3] is described as follows: Average particle diameter of peptide assembly by dynamic light scattering. The data set is classed as physicochemical. The following applies: 10 mM HEPES, 150 mM NaCl buffer (pH 7); 40 mM DMSO stock diluted 100-fold; stood overnight; 25° C.; main peak of scattering intensity. The procedure: 5 mg of each of the peptides of Examples 1-1 to 1-5 and Reference Examples 1-1 to 1-8 was dissolved in dimethyl sulfoxide (DMSO) to provide a stock solution (40 mM). To a 10 mM HEPES and 150 mM NaCl buffer (pH 7) under stirring with a micromixer (E-36, Taitec Corporation), 4 μL of the stock solution was dropped to be diluted 100-fold. The dilution was vortexed and then left to stand still at room temperature overnight. Then, 200 μL of the dilution was used as a measurement sample and measurement of particle diameter distribution was performed at 25° C. by dynamic light scattering with Litesizer 500 (Anton Paar GmBH). The results determined by defining the main peak of a scattering intensity as the average particle diameter of an assembly are shown in Table 3. Provided that, when a polydispersity index was more than 20%, the main peak was determined with further reference to a volume-based particle diameter distribution.

The nature of data set [4]: Pyrene fluorescence probing, critical aggregation concentration. The data set is classed as physicochemical. Conditions: pyrene probe 0.1 μM in PBS, 24 hours, room temperature; inflection point of FIG. 5. As for the experimental part: Fluorescence probing has hitherto been widely used as a technique for measuring the critical micellar concentration (CMC) of a surfactant solution. When hydrophobic fluorescent molecules are added to an aqueous solution of a surfactant and excited, week fluorescence is generated from the fluorescent molecules dispersed in the solution under a state in which the concentration of the surfactant is low. Meanwhile, the concentration of the surfactant is more than the CMC, the hydrophobic fluorescent molecule is incorporated into a micelle surrounded by hydrophobic groups of the surfactant (hydrophobic environment) and emits strong fluorescence. In this experimental example, a change in fluorescent property with a change in peptide concentration was investigated by using pyrene as a fluorescence probe and using a peptide instead of the surfactant. […]
(3) One hundred fifty microliter of the reaction solution was transferred to each well of a plate (Non-Treated Black Polystyrene 96-well plate (Corning 3694)). […] The peak value of a fluorescence intensity (384 nm) was plotted against a peptide concentration (logarithmic value).
This increased fluorescence intensity means formation of a peptide assembly that provides a hydrophobic environment capable of encapsulating pyrene. […] The peptides of Examples 1-2 and 1-5 each had approximately the same fluorescence intensity up to 0.1 mM.

The target in data set [5] is Arg-gingipain (Rgp). The data set can be described thus: Binding affinity to second target (Rgp) by SPR (Biacore-T100). The following applies: immobilized Rgp, 10 mM HEPES (pH 7.4), 150 mM NaCl, 0.05% Tween, 0.2% DMSO, peptide 25-1,600 nM, read-out: Dissociation constant (KD). As for the experimental part: The peptide of Example 1-2 and an Rgp-binding peptide A (RRKRR: SEQ ID NO: 16) forming the Rgp binding site of the peptide were each measured for its binding affinity to Rgp by SPR using “Biacore-T100” (GE Healthcare). The measurement was performed according to a common method. Specifically, the measurement of the peptide of Example 1-2 was performed through bonding streptavidin (Extravidin SIGMA E2511) to a chip (CM5 sensor chip) by amine coupling, and then immobilizing Rgp biotinylated with a 20-fold molar ratio of an NHS-biotinylation reagent (EZ-Link™ Sulfo-NHS-SS-Biotin, Thermo Fischer Scientific Inc.). Meanwhile, the measurement of the Rgp-binding peptide A was performed through directly immobilizing Rgp on a CM5 sensor chip by amine coupling from the viewpoint of measurement sensitivity.
Next, the peptide stock solution (in DMSO) was diluted with a running buffer (10 mM HEPES (pH 7.4), 150 mM NaCl, 0.05% Tween, 0.2% DMSO) to prepare peptide solutions having final peptide concentrations of 25 nM, 100 nM, 400 nM, and 1,600 nM. Those peptide solutions having the four concentrations were used to provide sensorgrams indicating weight changes caused by binding between Rgp immobilized on the chip and the peptide. […]

Data set [6] addresses Arg-gingipain (Rgp). The data set can be described thus: SPR (Biacore T100); biotinylated Rgp captured on streptavidin-coupled CM5 chip; peptide as analyte at 25-1,600 nM; KD per peptide.
For data set [7], the target named is Arg-gingipain (Rgp). The data set can be described thus: SPR (Biacore T100); Rgp amine-coupled directly to CM5 chip; peptide as analyte at 25-1,600 nM. For orientation: SPR reads the build-up and loss of mass on a sensor chip optically.

Square brackets hold non-standard residues; d marks the D form. Ends that are not written are not given here. * marks the point of attachment. 5(6)‑FAM = 5(6)-carboxyfluorescein; pS = N[C@@H](COP(=O)(O)O)C(=O)O; Tfa = O=C(C(F)(F)F)*

For “5(6)-FAM-GYSEWRKWEL ({5(6)‑FAM}-GYSEWRKWEL-NH2) [Comparative Example 1]”, the Elimination half-life in data set [1] came out at 1.3 h.

In the case of “5(6)-FAM-GYSEWRKWEL-LLLLLL ({5(6)‑FAM}-GYSEWRKWELLLLLLL-NH2) [Comparative Example 2]”, in data set [1], the Elimination half-life was 16.7 h.

The molecule “5(6)-FAM-GYSEWRKWEL-LLLLLLGG-HWRGWV ({5(6)‑FAM}-GYSEWRKWELLLLLLLGGHWRGWV-NH2) [Example 3-1]” displayed an Elimination half-life in data set [1] of 133 h.

For the molecule “DSpSEEKW (DS[pS]EEKW) [HA-binding peptide A, reference compound]”, in data set [2], the Kd (in general, the equilibrium constant for the complex coming apart) turned out to be 710 nM.

For the molecule “DSpSEEKW-LLELLELL-KGKILRPR (DS[pS]EEKWLLELLELLKGKILRPR-NH2; N-terminus assumed; SMILES CC[C@H](C)[C@H](NC(=O)[C@H](CCCCN)NC(=O)CNC(=O)[C@H](CCCCN)NC(=O)[C@H](CC(C)C)NC(=O)[C@H](CC(C)C)NC(=O)[C@H](CCC(=O)O)NC(=O)[C@H](CC(C)C)NC(=O)[C@H](CC(C)C)NC(=O)[C@H](CCC(=O)O)NC(=O)[C@H](CC(C)C)NC(=O)[C@H](CC(C)C)NC(=O)[C@H](Cc1c[nH]c2ccccc12)NC(=O)[C@H](CCCCN)NC(=O)[C@H](CCC(=O)O)NC(=O)[C@H](CCC(=O)O)NC(=O)[C@H](COP(=O)(O)O)NC(=O)[C@H](CO)NC(=O)[C@@H](N)CC(=O)O)C(=O)N[C@@H](CC(C)C)C(=O)N[C@@H](CCCNC(=N)N)C(=O)N1CCC[C@H]1C(=O)N[C@@H](CCCNC(=N)N)C(N)=O) [Example 1-5]”, the Kd in data set [2] is < 40 nM. The molecule also showed an Average particle diameter in data set [3] of 5 nm.

For the molecule “DSpSEEKW-LLELLELL-RRK(Tfa)RR (DS[pS]EEKWLLELLELLRRK(Tfa)RR-NH2; N-terminus assumed; SMILES CC(C)C[C@H](NC(=O)[C@H](CC(C)C)NC(=O)[C@H](CCC(=O)O)NC(=O)[C@H](CC(C)C)NC(=O)[C@H](CC(C)C)NC(=O)[C@H](CCC(=O)O)NC(=O)[C@H](CC(C)C)NC(=O)[C@H](CC(C)C)NC(=O)[C@H](Cc1c[nH]c2ccccc12)NC(=O)[C@H](CCCCN)NC(=O)[C@H](CCC(=O)O)NC(=O)[C@H](CCC(=O)O)NC(=O)[C@H](COP(=O)(O)O)NC(=O)[C@H](CO)NC(=O)[C@@H](N)CC(=O)O)C(=O)N[C@@H](CCCNC(=N)N)C(=O)N[C@@H](CCCNC(=N)N)C(=O)N[C@@H](CCCCNC(=O)C(F)(F)F)C(=O)N[C@@H](CCCNC(=N)N)C(=O)N[C@@H](CCCNC(=N)N)C(N)=O) [Example 1-1]”, in data set [4], the “critical aggregation concentration (CAC)” value was 50 µM. In data set [3], this molecule yielded an Average particle diameter of 380 nm.

As for “DSpSEEKW-LLELLELL-RRKRR (DS[pS]EEKWLLELLELLRRKRR-NH2; N-terminus assumed; SMILES CC(C)C[C@H](NC(=O)[C@H](CC(C)C)NC(=O)[C@H](CCC(=O)O)NC(=O)[C@H](CC(C)C)NC(=O)[C@H](CC(C)C)NC(=O)[C@H](CCC(=O)O)NC(=O)[C@H](CC(C)C)NC(=O)[C@H](CC(C)C)NC(=O)[C@H](Cc1c[nH]c2ccccc12)NC(=O)[C@H](CCCCN)NC(=O)[C@H](CCC(=O)O)NC(=O)[C@H](CCC(=O)O)NC(=O)[C@H](COP(=O)(O)O)NC(=O)[C@H](CO)NC(=O)[C@@H](N)CC(=O)O)C(=O)N[C@@H](CCCNC(=N)N)C(=O)N[C@@H](CCCNC(=N)N)C(=O)N[C@@H](CCCCN)C(=O)N[C@@H](CCCNC(=N)N)C(=O)N[C@@H](CCCNC(=N)N)C(N)=O) [Example 1-2]”, the Kd came to 1400 nM in data set [2] and 1.3 nM on Arg-gingipain (Rgp) [5]. The same molecule showed an Average particle diameter in data set [3] of 250 nm.

In the case of “RRKRR [Rgp-binding peptide A, reference compound]”, on Arg-gingipain (Rgp) [5], the equilibrium dissociation constant (Kd) stood at 400 nM.

B1: peptide of Example 1-2 (DSpSEEKW-LLELLELL-RRKRR) (peptide)
peptide: DSSEEKWLLELLELLRRKRR
modifications: pS = phosphorylated serine (third residue of DSpSEEKW); C-terminal carboxyl group amidated
The molecule B1 had a Kd with Arg-gingipain (Rgp) [6] of 1.3 nM.

In the data set with Arg-gingipain (Rgp) [7], RRKRR [Rgp-binding peptide A (RRKRR)] showed a Kd of 400 nM.
